# Source: patent US20140134176A1 (Pfizer, published 2014)
# B1: MOR8457-Fab (Fab, V domains shown)
# VH: EVQLVESGGGLVQPGGSLRLSCAASGFTFSSYAMSWVRQAPGKGLEWVSYISDDGSLKYYADSVKGRFTISRDNSKNTLYLQMNSLRAEDTAVYYCARHPYWYGGQLDLWGQGTLVTVSS
# VL: SYELTQPPSVSVAPGQTARISCSGDSLGSYFVHWYQQKPGQAPVLVIYDDSNRPSGIPERFSGSNSGNTATLTISGTQAEDEADYYCSAFTHNSDVFGGGTKLTVL
# notes: Fab format (HuCAL GOLD, expressed in E. coli); also called Fab-MOR8457
# B2: MOR8457-mIgG1 (antibody)
# heavy: EVQLVESGGGLVQPGGSLRLSCAASGFTFSSYAMSWVRQAPGKGLEWVSYISDDGSLKYYADSVKGRFTISRDNSKNTLYLQMNSLRAEDTAVYYCARHPYWYGGQLDLWGQGTLVTVSSAKTTPPSVYPLAPGSAAQTNSVTLGCLVKGYFPEPVTVTWNSGSLSSGVHTFPAVLQSDLYTLSSSVTVPSSTWPSETVTCNVAHPASSTKVDKKIVPRDCGCKPCICTVPEVSSVFIFPPKPKDVLTITLTPKVTCVVVDISKDDPEVQFSWFVDDVEVHTAQTQPREEQFNSTFRSVSELPIMHQDWLNGKEFKCRVNSAAFPAPIEKTISKTKGRPKAPQVYTIPPPKEQMAKDKVSLTCMITDFFPEDITVEWQWNGQPAENYKNTQPIMDTDGSYFVYSKLNVQKSNWEAGNTFTCSVLHEGLHNHHTEKSLSHSPGK
# light: SYELTQPPSVSVAPGQTARISCSGDSLGSYFVHWYQQKPGQAPVLVIYDDSNRPSGIPERFSGSNSGNTATLTISGTQAEDEADYYCSAFTHNSDVFGGGTKLTVLQPKSSPSVTLFPPSSEELETNKATLVCTITDFYPGVVTVDWFTKVDGTPVTQGMETTQPSKQSNNKYMASSYLTLTARAWERHSSYSCQVTHEGHTVEFTKSLSRADCS
# notes: Original MOR8457 VH + mouse wild type IgG1 constant; original VL + mouse wild type lambda constant
# Tests used:
# human PDGF-BB [1] = biological target: T1, human PDGF-BB (human, UniProt P01127 82-190); assay: cell-based or functional assay
# human PDGF-AA [2] = biological target: T2, human PDGF-AA (human, UniProt P04085 87-211, limits assumed); assay: ELISA
# mouse PDGF-BB [3] = biological target: T3, mouse PDGF-BB (mouse, UniProt P31240 82-190); assay: SPR (Biacore 2000), antibody captured via anti-mouse IgG, PDGF injected; off rate beyond instrument limit
# T3 construct: also called muBB; Mu PDGF-BB
# Description: (§1) Anti-human (A-D, I-K) or anti-mouse (E-H) IgG antibodies were immobilized in flow cells of CM5 sensor chips. 1 μg/mL of MOR8457-IKR-hIgG1-3m (A-D), MOR8457-mIgG1 (E-H) or MOR8457-GL-hIgG1-3m (I-K) was injected independently over the respective anti-human or anti-mouse surface for 10 seconds resulting in a stable anti-PDGF surface between 50-100 RU. Different concentration of PDGF proteins, 0.25, 0.5, and 1 nM, was then injected over the antibody surface for 2 minutes at a flow rate of 100 μl/min for binding. The complex was allowed to dissociate for 10 minutes. The surface was regenerated with a 30 second injection of 10 mM magnesium chloride leaving the surface ready for another round of anti-PDGF antibody capture and PDGF binding kinetics. Each of these three antibodies bound tightly to human (A, E, I), mouse (B, F, J) and rat (C, G, K) PDGF-BB. MOR8457-IKR-hIgG1-3m (D) and MOR8457-mIgG1 (H) bound to human PDGF-AB. Each sensorgram shown is one representative of three independent experiments.
# (§2) In order to test the specificity and cross species reactivity, the binding affinities of three MOR8457 IgG variants, MOR8457-IKR-hIgG1-3m, MOR8457-mIgG1, and MOR8457-GL-hIgG1-3m, to different human PDGF ligands, including human PDGF-AA, -AB, -DD, as well as rat PDGF-BB (all obtained from R&D systems, Minneapolis, Minn.) and mouse PDGF-BB (Invitrogen, Carlsbad, Calif.) were tested. Briefly, anti-human or anti-mouse IgG (GE Healthcare) antibodies were immobilized in adjacent flow cells of a CM5 sensor chip between 8000-10,000 resonance units (RU) using amine coupling as directed by the manufacturer. Antibodies were diluted into PBS-NET (10 mM Phosphate pH 7.4, 287 mM NaCl, 2.7 mM KCl, 3.2 mM EDTA, 0.01% Tween 20) to 1 μg/mL and injected independently over the respective anti-human or anti-mouse surface for 10 seconds resulting in a stable anti-PDGF surface between 50-100 RU. PDGF proteins were diluted to 1 nM in PBS-NET and serially diluted two-fold to 0.25 nM. Each concentration of PDGF was then injected over the antibody surface for 2 minutes at a flow rate of 100 μl/min. The complex was allowed to dissociate for 10 minutes. The surface was regenerated with a 30 second injection of 10 mM magnesium chloride leaving the surface ready for another round of anti-PDGF antibody capture and PDGF binding kinetics.
# rat PDGF-BB [4] = biological target: T4, rat PDGF-BB (rat, UniProt Q05028 74-182); assay: as above
# T4 construct: also called ratBB
# Description: as §1, §2
# human PDGF-BB [5] = biological target: T1, human PDGF-BB; assay: as above
# Description: as §1, §2
# human PDGF-AB [6] = biological target: T5, human PDGF-AB (human, UniProt P04085 87-211, limits assumed); assay: as above
# T5 construct: Heterodimer of PDGF-A and PDGF-B, bought; also called huAB; Hu PDGF-AB
# Description: as §1, §2
# human PDGF-BB [7] = biological target: T1, human PDGF-BB; assay: SPR (Biacore) competition in solution: MOR8457-mIgG1 serially diluted, mixed with human PDGF-BB, 20 h at 2-8 C, mixture injected over PDGFRβ-hIgG1 captured on anti-human IgG; blocked partner PDGFRβ-hIgG1
# Description: MOR8457-mIgG1 was serially diluted in PBS then mixed with […] of human PDGF-BB and incubated for 20 hours at 2-8° C. to reach equilibrium as indicated by the [brackets]. Each MOR8457-mIgG1 and PDGF-BB dilution mixture was then injected over the surface of PDGFRβ-hIgG1 captured by anti-human IgG1 on a CM5 chip. […] Data shown are from one representative experiment of two independent experiments.
# Because of the complexity of the 2:1 binding stoichiometry, and also to avoid any potential artifacts introduced by sequential binding on the chip, the competitive binding was further confirmed by neutralizing PDGF-BB with MOR8457 in solution as illustrated by the diagram shown in FIG. 5A. MOR8457-mIgG1 was serially diluted in PBS then mixed with […] of human PDGF-BB and incubated for 20 hours at 2-8° C. to reach equilibrium. Each MOR8457-mIgG1 and PDGF-BB dilution mixture shown between [brackets] in FIG. 5A, was then injected over the surface of PDGFRβ-hIgG1 captured by anti-human IgG1 on a CM5 chip. FIG. 5B depicts a graph showing the concentration response curve of MOR8457 inhibition.
# mouse PDGF-BB [8] = biological target: T3, mouse PDGF-BB; assay: SPR (Biacore 2000), antibody captured via anti-mouse IgG, PDGF injected
# Description: as §1, §2
# rat PDGF-BB [9] = biological target: T4, rat PDGF-BB; assay: as above
# Description: as §1, §2
# human PDGF-BB [10] = biological target: T1, human PDGF-BB; assay: as above
# Description: as §1, §2
# human PDGF-AB [11] = biological target: T5, human PDGF-AB; assay: as above
# Description: as §1, §2
# human PDGF-DD = human PDGF-DD (human, UniProt Q9GZP0 250-370, limits assumed); assay: SPR (Biacore), antibody captured
# Description: as §2, with “kinetics. Kinetic data were double referenced (Myszka et al., 1999, J. Mol. Recognit. 12 279) using scrubber2 software (Bio-Logic Software), then fit to a 1:1 binding model using Biacore evaluation software version 4.1. The results shown were an average of three independent binding studies.” for “kinetics.”
# human PDGF-AA [12] = biological target: T2, human PDGF-AA; assay: SPR (Biacore), antibody captured
# Description: as §2, with “kinetics. Kinetic data were double referenced (Myszka et al., 1999, J. Mol. Recognit. 12 279) using scrubber2 software (Bio-Logic Software), then fit to a 1:1 binding model using Biacore evaluation software version 4.1. The results shown were an average of three independent binding studies.” for “kinetics.”
# T1 sequence (P01127 82-190 limits assumed): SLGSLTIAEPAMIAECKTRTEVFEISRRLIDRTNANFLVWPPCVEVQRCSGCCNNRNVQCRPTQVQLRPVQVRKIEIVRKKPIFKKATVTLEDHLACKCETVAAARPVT
# T3 sequence (P31240 82-190 limits assumed): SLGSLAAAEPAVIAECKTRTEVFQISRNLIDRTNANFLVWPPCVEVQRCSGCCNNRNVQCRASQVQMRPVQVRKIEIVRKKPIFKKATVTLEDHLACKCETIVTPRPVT
# T5 sequence (chain, as listed by the source limits assumed, chain 2 of 2, other chains not shown): as the sequence (P01127 82-190 limits assumed) above
# T4 sequence (Q05028 74-182 limits assumed): as the sequence (P31240 82-190 limits assumed) above, with I83V, I102V counted along it
# Sequence of human PDGF-DD (Q9GZP0 250-370 limits assumed): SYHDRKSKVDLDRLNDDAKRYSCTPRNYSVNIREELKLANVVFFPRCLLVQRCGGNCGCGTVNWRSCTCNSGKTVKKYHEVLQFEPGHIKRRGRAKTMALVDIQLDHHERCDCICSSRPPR
Binder,"IC50, inhibition of PDGF-BB-induced PDGF-Rβ Tyr751 phosphorylation (PAE PDGF-Rβ cells) (human PDGF-BB [1]) [nM]",binding result (human PDGF-AA [2]),Kd (mouse PDGF-BB [3]) [nM],Kd (rat PDGF-BB [4]) [nM],Kd (human PDGF-BB [5]) [nM],Kd (human PDGF-AB [6]) [nM],IC50 (read off the curve) (human PDGF-BB [7]) [nM],kon (mouse PDGF-BB [8]) [M⁻¹ s⁻¹],kon (rat PDGF-BB [9]) [M⁻¹ s⁻¹],kon (human PDGF-BB [10]) [M⁻¹ s⁻¹],kon (human PDGF-AB [11]) [M⁻¹ s⁻¹],binding result (human PDGF-DD),binding result (human PDGF-AA [12])
B1,0.32,no binding,,,,,,,,,,,
B2,,,< 0.01,< 0.01,< 0.01,< 0.01,~0.04,2.48e+07,1.42e+07,1.12e+07,5.9e+06,no binding (tested: 0.25-1 nM PDGF),no binding (tested: 0.25-1 nM PDGF)
